Read-outs that look alike come from different tables or passages of the source.

By IC50 is commonly meant the concentration that gives 50% inhibition. Low readings indicate inhibition by little substance, high ones a need for much substance. Usually Kd stands for a measure of binding affinity in units of concentration. A lower Kd goes with tighter binding. What is called koff is the rate constant with which the complex falls apart. A lower koff goes with slow dissociation. A word on the kon: it is the rate constant with which the complex forms. A high value points to faster complex formation.

The target of test [1] is SARS-CoV RBD-His (#40150-V08B2, Sino Biological) (SARS-CoV, UniProt P59594 306-527). The test is described as follows: ELISA, coated His-tagged antigen. For orientation: ELISA stands for enzyme-linked immunosorbent assay.
For test [2], the target named is T1, SARS-CoV-2 spike protein on live SARS-CoV-2 virus (SARS-CoV-2, UniProt P0DTC2 14-1273). Kind of test: cell-based or functional assay.
Test [3] addresses T2, SARS-CoV-2 RBD-mFc (SARS-CoV-2, UniProt P0DTC2 319-541).
T2 construct: range 319-541
Kind of test: competition ELISA: RBD-mFc on coated ACE2-His.

For test [4], the target named is T2, SARS-CoV-2 RBD-mFc. The test is described as follows: Octet QKe BLI, 1:1 global fit. In general terms: In BLI a coated tip is dipped into the sample, and binding shifts an interference pattern.
Test [5] has as its target T3, SARS-CoV 스파이크 [change] (#40150-V08B1, Sino Biological) (SARS-CoV, UniProt P59594 14-667). Kind of test: ELISA, coated S1-His, as Example 5.2.
For test [6], the target named is T2, SARS-CoV-2 RBD-mFc. Kind of test: flow cytometry competition: RBD-mFc on HEK293E/ACE2 cells. For orientation: In flow cytometry, cells or beads pass a laser one at a time.
Test [7] deals with T4, SARS-CoV-2 RBD-hFc (SARS-CoV-2, UniProt P0DTC2 319-541). Kind of test: cell-based or functional assay.
Test [8] concerns the target T5, SARS-CoV-2 스파이크 S1-mFc (SARS-CoV-2, UniProt P0DTC2 16-685).
T5 construct: range 16-685
The test is described as follows: competition ELISA: S1-mFc on coated ACE2-His.

The target in test [9] is T4, SARS-CoV-2 RBD-hFc. Kind of test: cell-based or functional assay. This is another data set of the same source.
Test [10] has as its target T1, SARS-CoV-2 spike protein on live …. The test is described as follows: cell-based or functional assay. This is another data set of the same source.
Test [11] concerns the target T3, SARS-CoV 스파이크 [change] (#40150-V08B1, …). Kind of test: ELISA, coated S1-His.
Test [12] deals with T2, SARS-CoV-2 RBD-mFc. Kind of test: flow cytometry competition: RBD-mFc on HEK293E/ACE2 cells. This is another data set of the same source.
In test [13] the target is T2, SARS-CoV-2 RBD-mFc. Kind of test: competition ELISA: RBD-mFc on coated ACE2-His. This is another data set of the same source.
The target in test [14] is T2, SARS-CoV-2 RBD-mFc. The test is described as follows: Octet QKe BLI, 1:1 global fit. This is another data set of the same source.
Test [15] has as its target T5, SARS-CoV-2 스파이크 S1-mFc. The test is described as follows: competition ELISA: S1-mFc on coated ACE2-His. This is another data set of the same source.
Test [16] addresses T2, SARS-CoV-2 RBD-mFc.
In test [17] the target is T2, SARS-CoV-2 RBD-mFc. The source holds these as a separate data set.
The target of test [18] is T5, SARS-CoV-2 스파이크 S1-mFc.

B1: SA4118 (antibody, V domains shown)
VH: QVQLVESGAEVKKPGASVRVSCKISGYIFTELSIHWVRQAPGKGLEWMGGFDPEEGKTIYAQKFQGRVTMTEDTSTDTAYMELSSLRSEDTAVYYCAKIGHLGDFWYWGQGTLITVSS
VL: QSALTQPASVSGSPGQSITISCTGTTSDIGSYDYVSWYQQHPGKAPKLIIYGVTRRPSGVSNRFSGSKSGNTASLTISGLQAEDEANYYCSSCTRSSTYVFGTGTKVTVL
B1: the binding result in test [1] and in [5] was “no binding” each time. Further, the “IC50, live SARS-CoV-2 미세중화분석, Vero 세포, 72시간” value (“IC50 … 72시간” below) in [2] was determined as 8.29 nM. In addition, the half-inhibitory concentration (IC50) came to 0.709 nM in the test with SARS-CoV-2 RBD-mFc [3], 2.71 nM with SARS-CoV-2 RBD-mFc [6] and 2.28 nM in the test with SARS-CoV-2 스파이크 S1-mFc [8]. This molecule also had a dissociation constant (Kd) in the test with SARS-CoV-2 RBD-mFc [4] of 0.0296 nM. Besides, the koff with SARS-CoV-2 RBD-mFc [4] amounted to 2.05e-05 s⁻¹. This molecule returned an on-rate (kon) in the test with SARS-CoV-2 RBD-mFc [4] of 695000 M⁻¹ s⁻¹. The “IC50, 세포내 유입(internalization) 억제, HEK293E/ACE2-GFP” value (shortened to “IC50 … HEK293E/ACE2-GFP”) in the test with SARS-CoV-2 RBD-hFc [7] is 31.4 nM.

B2: SA4114 (antibody, V domains shown)
VH: QVQLVESGGTLVQPGRSLRLSCAASGFTFSSYAMHWVRQAPGKGLEWVAVISYDGSNKYYADSVKGRFTISRDNSKNTLYLQMNSLRAEDTAVYYCARRGHYYDSSGFLYWGQGTLVTVSS
VL: DIQMTQSPSSLSASVGDRVTITCRAGQSIDNYLNWYQQKPGKAPKLLIYAASTLHSGVPSRFSGSGSGTDFTLTISSLQPDDFATYYCQQSYSIPRTFGQGTKLEIK
On to B2, for which the binding result in test [1] and in test [5] was “no binding” each time. In test [2], the “IC50 … 72시간” value worked out at 12.8 nM. In addition, the 50% inhibitory concentration (IC50) with SARS-CoV-2 RBD-mFc [3] amounted to 0.364 nM; with SARS-CoV-2 RBD-mFc [6], 2.39 nM; with SARS-CoV-2 스파이크 S1-mFc [8] it was 1.19 nM. Moreover, in the test with SARS-CoV-2 RBD-mFc [4], the dissociation constant (Kd) was 0.0899 nM. For the same molecule, the koff with SARS-CoV-2 RBD-mFc [4] came out at 3.89e-05 s⁻¹. This molecule came in with a kon in the test with SARS-CoV-2 RBD-mFc [4] of 433000 M⁻¹ s⁻¹. Moreover, the “IC50 … HEK293E/ACE2-GFP” value with SARS-CoV-2 RBD-hFc [7] came to 24.1 nM.

B3: SA3755 (antibody, V domains shown)
VH: QMQLVESGGGVVQPGGSLRLSCAASGFTFDDHTMHWVRQAPGKGLEWVSLISWDGGSTYYADSVKGRFTISRDNSKNSLYLQMNSLRAEDTAVYYCTRDASRRPGDGGYDFDVWGQGTQVTVSS
VL: QAVVTQEPSLTVSPGGTVTLTCGSSTGTVTRGHWPYWFQQKPGQAPRTLIYDTDNKHSWTPARFSGSLLGGKAALTLSGAQPEDEADYYCLLSYSDSRVFGTGTKVTVL
Regarding B3, the binding result in test [1] was “no binding”; in test [11], “no binding (tested: 50 nM)”. Also, the entries for the “IC50 … HEK293E/ACE2-GFP” value with SARS-CoV-2 RBD-hFc [9] and with SARS-CoV-2 RBD-hFc [7] were 40 nM and 35.8 nM, respectively. Further, in test [2], the “IC50 … 72시간” value amounted to 5.12 nM. In addition, the “IC50, live SARS-CoV-2 미세중화분석, Vero 세포” value in test [10] was 8.74 nM. Besides, the 50% inhibitory concentration (IC50) with SARS-CoV-2 RBD-mFc [3] was determined as 5.71 nM; in the test with SARS-CoV-2 RBD-mFc [12], 3.8 nM; in the test with SARS-CoV-2 RBD-mFc [13], 7.74 nM; with SARS-CoV-2 RBD-mFc [6], 3.09 nM; with SARS-CoV-2 스파이크 S1-mFc [15], 4.06 nM; in the test with SARS-CoV-2 RBD-mFc [16] it was 2.26 nM. Further, the figures for the IC50 with SARS-CoV-2 RBD-mFc [17], with SARS-CoV-2 스파이크 S1-mFc [18] and with SARS-CoV-2 스파이크 S1-mFc [8] were 23.1 nM, 8.27 nM and 4.67 nM, respectively. For the same molecule, binding with SARS-CoV-2 RBD-mFc [14] was characterised by a dissociation constant (Kd) of 1.06 nM. In the test with SARS-CoV-2 RBD-mFc [14], the koff came to 0.000424 s⁻¹. This molecule also registered a kon with SARS-CoV-2 RBD-mFc [14] of 399000 M⁻¹ s⁻¹.
